Results taken from paper PMC5702669.

Experiments:
[1] = target: full-length PfMyoA heavy chain with C-terminal biotin tag and FLAG tag (P. falciparum) (UniProt Q8IDR3)
[2] = target: skeletal muscle actin (UniProt P68135)

Substance: T. gondii essential light chain TgELC1 (from UniProt A0A125YUL9 1-87) (natural protein)
- in vitro motility speed of PfMyoA-MTIP with TgELC1, no calcium [1]: 3.3 μm/s

Substance: PfMD, PfMyoA motor domain (Met-1–Lys-768) with C-terminal FLAG tag (from UniProt Q8IDR3 1-768) (domain or fragment)
- Km (actin concentration at half-maximal activity) of the actin-activated ATPase, 30 °C, 5 mM NaCl [2]: 13 µM

Substance: P. falciparum essential light chain (PfELC), untagged (from UniProt Q8IJM4 1-134) (natural protein)
- in vitro motility speed of PfMyoA-MTIP with PfELC, no calcium [1]: 3.8 μm/s
- in vitro motility speed of PfMyoA-MTIP with PfELC, with calcium (100 μM) [1]: 3.8 μm/s

Substance: PF3D7_0107000, putative centrin-1 (PfPC1), N-terminal His6 tag (natural protein)
- in vitro motility speed of PfMyoA-MTIP with PF3D7 0107000 added, no calcium [1]: 1.5 μm/s

Substance: PfMD T417A (phospho-null at the TEDS site) (from UniProt Q8IDR3 1-768) (domain or fragment)
- Km (actin concentration at half-maximal activity) of the actin-activated ATPase, 30 °C, 5 mM NaCl [2]: 9.8 µM

Substance: PF3D7_0627200, putative myosin light chain (PFF1320c) (from UniProt C6KTA8 1-139) (natural protein)
- in vitro motility speed of PfMyoA-MTIP with PF3D7 0627200 added, no calcium [1]: 1.1 μm/s
- in vitro motility speed of PfMyoA-MTIP with PF3D7 0627200 added, with calcium [1]: 0.6 μm/s

Substance: PfMD T417D (phosphomimic at the TEDS site) (from UniProt Q8IDR3 1-768) (domain or fragment)
- Km (actin concentration at half-maximal activity) of the actin-activated ATPase, 30 °C, 5 mM NaCl [2]: 4.4 µM
